Positions count from the first letter of the chain named.
B1: anti-Alb mask070 anti-CD40 C2882, C2764 (aCD40 Heavy Chain GDSE) (bispecific antibody, human IgG1, kappa)
heavy: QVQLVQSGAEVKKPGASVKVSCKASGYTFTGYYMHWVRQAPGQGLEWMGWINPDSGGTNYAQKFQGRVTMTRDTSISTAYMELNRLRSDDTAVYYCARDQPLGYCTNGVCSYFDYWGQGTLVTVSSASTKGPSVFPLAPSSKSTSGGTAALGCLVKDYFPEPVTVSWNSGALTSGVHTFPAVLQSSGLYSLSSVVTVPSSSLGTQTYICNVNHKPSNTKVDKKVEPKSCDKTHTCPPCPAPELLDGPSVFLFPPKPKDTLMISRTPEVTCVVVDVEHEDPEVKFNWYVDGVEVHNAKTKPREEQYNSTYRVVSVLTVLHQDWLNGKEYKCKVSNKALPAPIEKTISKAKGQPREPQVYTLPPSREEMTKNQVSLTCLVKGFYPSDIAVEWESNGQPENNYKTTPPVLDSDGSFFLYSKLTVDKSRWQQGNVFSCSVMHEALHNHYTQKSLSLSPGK
light: EVQLVESGGGLVQPGNSLTLSCAASGFTFSKFGMSWVRQARAASAGQGLEWVSSISGSGRDTLYADSVKGRFTISRDNAKTTLYLQMNSLRPEDTAVYYCTIGGSLSVSSQGTLVTVSSGGGGSGGGSGGGGSGGGSDIQMTQSPSSVSASVGDRVTITCRASQGIYSWLAWYQQKPGKAPNLLIYTASTLQSGVPSRFSGSGSGTDFTLTISSLQPEDFATYYCQQANIFPLTFGGGTKVEIKRTVAAPSVFIFPPSDEQLKSGTASVVCLLNNFYPREAKVQWKVDNALQSGNSQESVTEQDSKDSTYSLSSTLTLSKADYEKHKVYACEVTHQGLSSPVTKSFNRGEC
notes: Non-cleavable linker; Purified by Protein A. Same light chain as m2 but with the GDSE heavy chain C2764; also called C2882 aAlb-CD40-mask070
B2: anti-Alb mask070 L040 anti-CD40, C2905, C2764, L040 (-) Protease (bispecific antibody, human IgG1, kappa)
heavy: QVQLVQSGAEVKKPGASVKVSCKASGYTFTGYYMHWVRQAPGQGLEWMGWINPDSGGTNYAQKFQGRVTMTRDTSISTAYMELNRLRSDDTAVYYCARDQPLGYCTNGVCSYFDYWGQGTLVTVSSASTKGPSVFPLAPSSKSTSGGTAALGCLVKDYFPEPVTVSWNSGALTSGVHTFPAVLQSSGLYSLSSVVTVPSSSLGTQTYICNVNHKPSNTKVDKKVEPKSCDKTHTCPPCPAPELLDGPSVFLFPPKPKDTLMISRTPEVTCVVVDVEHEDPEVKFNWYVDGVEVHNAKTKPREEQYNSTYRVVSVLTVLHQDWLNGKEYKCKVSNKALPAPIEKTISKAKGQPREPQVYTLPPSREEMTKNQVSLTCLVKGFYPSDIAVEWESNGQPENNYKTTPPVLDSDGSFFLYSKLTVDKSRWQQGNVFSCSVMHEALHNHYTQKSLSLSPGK
light: EVQLVESGGGLVQPGNSLTLSCAASGFTFSKFGMSWVRQARAASAGQGLEWVSSISGSGRDTLYADSVKGRFTISRDNAKTTLYLQMNSLRPEDTAVYYCTIGGSLSVSSQGTLVTVSSGGGGPQASTGRSGGGGSDIQMTQSPSSVSASVGDRVTITCRASQGIYSWLAWYQQKPGKAPNLLIYTASTLQSGVPSRFSGSGSGTDFTLTISSLQPEDFATYYCQQANIFPLTFGGGTKVEIKRTVAAPSVFIFPPSDEQLKSGTASVVCLLNNFYPREAKVQWKVDNALQSGNSQESVTEQDSKDSTYSLSSTLTLSKADYEKHKVYACEVTHQGLSSPVTKSFNRGEC
B3: anti-Alb mask070 L040 anti-CD40, C2905, C2764, L040 (+) Protease (antibody)
heavy: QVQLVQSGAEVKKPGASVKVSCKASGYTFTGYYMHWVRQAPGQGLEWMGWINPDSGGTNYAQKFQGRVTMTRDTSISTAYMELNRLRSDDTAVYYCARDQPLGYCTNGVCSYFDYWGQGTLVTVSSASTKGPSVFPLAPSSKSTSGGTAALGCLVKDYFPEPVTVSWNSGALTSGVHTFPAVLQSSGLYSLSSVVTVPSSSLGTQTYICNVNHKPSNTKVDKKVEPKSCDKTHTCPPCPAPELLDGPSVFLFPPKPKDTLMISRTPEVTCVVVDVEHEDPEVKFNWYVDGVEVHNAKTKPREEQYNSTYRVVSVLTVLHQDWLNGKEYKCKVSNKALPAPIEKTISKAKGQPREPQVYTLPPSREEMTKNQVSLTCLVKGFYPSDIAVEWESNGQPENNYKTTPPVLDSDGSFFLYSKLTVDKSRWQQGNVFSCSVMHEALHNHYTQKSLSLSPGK
light: B2 light
B4: Unmasked anti-CD40 C00697, C2764 (aCD40 Heavy Chain GDSE) (antibody, human IgG1, kappa, V domains shown)
VH: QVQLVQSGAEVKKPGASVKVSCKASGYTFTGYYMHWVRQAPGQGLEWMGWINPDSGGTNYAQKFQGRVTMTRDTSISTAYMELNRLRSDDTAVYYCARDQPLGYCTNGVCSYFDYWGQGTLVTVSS
VL: DIQMTQSPSSVSASVGDRVTITCRASQGIYSWLAWYQQKPGKAPNLLIYTASTLQSGVPSRFSGSGSGTDFTLTISSLQPEDFATYYCQQANIFPLTFGGGTKVEIKR
notes: Anti-CD40 light chain without an anti-Alb domain; also called Active mimic C00697, C2764; control active mimic
B5: anti-Alb-CD-1-A09 masked anti-CD40 protein with anti-CD40 heavy chain SEQ ID No. 73 (bispecific antibody, human IgG1, kappa)
heavy: not shown
light: EVQLVESGGGLVQPGNSLTLSCAASGFTFSKFGMSWVRQAPGSQKPGLEWVSSISGSGRDTLYADSVKGRFTISRDNAKTTLYLQMNSLRPEDTAVYYCTIGGSLSVSSQGTLVTVSSGGGGSGGGSGGGGSGGGSDIQMTQSPSSVSASVGDRVTITCRASQGIYSWLAWYQQKPGKAPNLLIYTASTLQSGVPSRFSGSGSGTDFTLTISSLQPEDFATYYCQQANIFPLTFGGGTKVEIKRTVAAPSVFIFPPSDEQLKSGTASVVCLLNNFYPREAKVQWKVDNALQSGNSQESVTEQDSKDSTYSLSSTLTLSKADYEKHKVYACEVTHQGLSSPVTKSFNRGEC
notes: Built as m2; Signal domain left out; Tested in conditioned media; also called aAlb-CD-1-A09
B6: anti-Alb-CD-2-D07 masked anti-CD40 protein with anti-CD40 heavy chain SEQ ID No. 73 (bispecific antibody, human IgG1, kappa)
heavy: not shown
light: B1 light with S44T, Q47S
notes: Built as m2; Signal domain left out; Tested in conditioned media; also called aAlb-CD-2-D07
B7: anti-Alb-CD-2-B07 masked anti-CD40 protein with anti-CD40 heavy chain SEQ ID No. 73 (bispecific antibody, human IgG1, kappa)
heavy: not shown
light: B1 light with R41V, A42R, A43P, S44R, A45G, G46T, Q47G
notes: Built as m2; Signal domain left out; Tested in conditioned media; also called aAlb-CD-2-B07
B8: anti-Alb-CD-2-D08 masked anti-CD40 protein with anti-CD40 heavy chain SEQ ID No. 73 (bispecific antibody, human IgG1, kappa)
heavy: not shown
light: B1 light with R41T, A42S, A43W, S44R, A45H, G46E, Q47R
notes: Built as m2; Signal domain left out; Tested in conditioned media; also called aAlb-CD-2-D08
B9: anti-Alb-CD-2-A10 masked anti-CD40 protein with anti-CD40 heavy chain SEQ ID No. 73 (bispecific antibody, human IgG1, kappa)
heavy: not shown
light: EVQLVESGGGLVQPGNSLTLSCAASGFTFSKFGMSWVRQAVGTRETSGGLEWVSSISGSGRDTLYADSVKGRFTISRDNAKTTLYLQMNSLRPEDTAVYYCTIGGSLSVSSQGTLVTVSSGGGGSGGGSGGGGSGGGSDIQMTQSPSSVSASVGDRVTITCRASQGIYSWLAWYQQKPGKAPNLLIYTASTLQSGVPSRFSGSGSGTDFTLTISSLQPEDFATYYCQQANIFPLTFGGGTKVEIKRTVAAPSVFIFPPSDEQLKSGTASVVCLLNNFYPREAKVQWKVDNALQSGNSQESVTEQDSKDSTYSLSSTLTLSKADYEKHKVYACEVTHQGLSSPVTKSFNRGEC
notes: Built as m2; Signal domain left out; Tested in conditioned media; also called aAlb-CD-2-A10
B10: anti-Alb-CD-2-C05 masked anti-CD40 protein with anti-CD40 heavy chain SEQ ID No. 73 (bispecific antibody, human IgG1, kappa)
heavy: not shown
light: B9 light with V41L, T43R, R44H, T46S, G48V
notes: Built as m2; Signal domain left out; Tested in conditioned media; also called aAlb-CD-2-C05
B11: anti-Alb-CD-2-C11 masked anti-CD40 protein with anti-CD40 heavy chain SEQ ID No. 73 (bispecific antibody, human IgG1, kappa)
heavy: not shown
light: B9 light with V41L, T43R, G48V
notes: Built as m2; Signal domain left out; Tested in conditioned media; also called aAlb-CD-2-C11
B12: anti-Alb-CD-2-F09 masked anti-CD40 protein with anti-CD40 heavy chain SEQ ID No. 73 (bispecific antibody, human IgG1, kappa)
heavy: not shown
light: B9 light with V41P, G42Y, T43S, R44Q, E45P, S47K, G48A
notes: Built as m2; Signal domain left out; Tested in conditioned media; also called aAlb-CD-2-F09
B13: anti-Alb-CD-2-F10 masked anti-CD40 protein with anti-CD40 heavy chain SEQ ID No. 73 (bispecific antibody, human IgG1, kappa)
heavy: not shown
light: B9 light with T43P
notes: Built as m2; Signal domain left out; Tested in conditioned media; also called aAlb-CD-2-F10
B14: anti-Alb-CD-2-D09 masked anti-CD40 protein with anti-CD40 heavy chain SEQ ID No. 73 (bispecific antibody, human IgG1, kappa)
heavy: not shown
light: B9 light with G42R, E45G
notes: Built as m2; Signal domain left out; Tested in conditioned media; also called aAlb-CD-2-D09
B15: anti-Alb-CD-1-F06 masked anti-CD40 protein with anti-CD40 heavy chain SEQ ID No. 73 (bispecific antibody, human IgG1, kappa)
heavy: not shown
light: B9 light with G42R, E45R
notes: Built as m2; Signal domain left out; Tested in conditioned media; also called aAlb-CD-1-F06
B16: anti-Alb-CD-2-D06 masked anti-CD40 protein with anti-CD40 heavy chain SEQ ID No. 73 (bispecific antibody, human IgG1, kappa)
heavy: not shown
light: B9 light with V41M, G42N, T43R, R44H, T46N, S47D, G48R
notes: Built as m2; Signal domain left out; Tested in conditioned media; also called aAlb-CD-2-D06

Biological target: CD40 on purified human B cells (human, UniProt P25942 21-277)
Sequence (P25942 21-277): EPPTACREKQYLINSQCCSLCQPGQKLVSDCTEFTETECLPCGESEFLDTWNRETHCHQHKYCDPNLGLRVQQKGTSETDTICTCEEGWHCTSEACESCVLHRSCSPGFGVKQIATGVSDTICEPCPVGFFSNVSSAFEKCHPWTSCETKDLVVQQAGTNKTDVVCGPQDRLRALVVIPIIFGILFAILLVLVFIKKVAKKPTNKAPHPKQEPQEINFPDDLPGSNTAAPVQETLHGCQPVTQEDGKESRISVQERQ
Test: cell-based or functional assay

Row | Binder | Activity shift, B cell activation | EC50 (M), B cell activation (percentage of CD86 positive B cells, flow cytometry, 48 hours)
1 | B1 | 2000 fold | 
2 | B2 | 2000 fold | 
3 | B3 | 1 fold | 1.6e-11 M
4 | B4 | 1 fold | 2.1e-11 M

Biological target: T1, C00703 huCD40::Fc (human)
T1 construct: also called human CD40 protein; immobilized huCD40
T1 sequence (chain, as listed by the source limits assumed): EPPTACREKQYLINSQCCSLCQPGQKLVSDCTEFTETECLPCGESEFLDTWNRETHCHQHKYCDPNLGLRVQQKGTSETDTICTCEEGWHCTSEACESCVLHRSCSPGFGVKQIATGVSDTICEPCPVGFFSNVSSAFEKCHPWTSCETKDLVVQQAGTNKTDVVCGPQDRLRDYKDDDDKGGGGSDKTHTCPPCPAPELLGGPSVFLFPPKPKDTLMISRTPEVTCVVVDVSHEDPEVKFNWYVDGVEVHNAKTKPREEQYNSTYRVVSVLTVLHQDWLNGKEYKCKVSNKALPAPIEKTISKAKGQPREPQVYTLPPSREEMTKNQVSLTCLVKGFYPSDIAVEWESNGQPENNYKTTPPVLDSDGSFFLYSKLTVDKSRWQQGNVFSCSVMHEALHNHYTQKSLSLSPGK
Test: ELISA, immobilized huCD40, purified protein

Row | Binder | EC50
5 | B1 | 25 nM
6 | B4 | 0.48 nM

Biological target: T1, C00703 huCD40::Fc
Test: ELISA, immobilized huCD40; the reference of the shift

Row | Binder | Binding shift
7 | B4 | 1 fold

Biological target: T1, C00703 huCD40::Fc
Test: ELISA, immobilized huCD40; EC50 shift against unmasked anti-CD40

Row | Binder | Binding shift
8 | B1 | 52 fold

Biological target: T1, C00703 huCD40::Fc
Test: BLI (Octet); huCD40::Fc immobilized, masked protein at 100 nM in conditioned media; nm shift relative to unmasked control anti-Alb-anti-CD40

Row | Binder | Binding response (% of control)
9 | B5 | 67 % of control
10 | B6 | 48 % of control
11 | B7 | 64 % of control
12 | B8 | 68 % of control
13 | B9 | 65 % of control
14 | B10 | 31 % of control
15 | B11 | 63 % of control
16 | B12 | 75 % of control
17 | B13 | 63 % of control
18 | B14 | 66 % of control
19 | B15 | 57 % of control
20 | B16 | 42 % of control

From patent US20210355219A1 (HARPOON THERAPEUTICS, published 2021)
